According to article PMC5123381:

Target: T1, CD11a (human (endogenous in NK92-CD16)) (UniProt P20701)
T1 sequence: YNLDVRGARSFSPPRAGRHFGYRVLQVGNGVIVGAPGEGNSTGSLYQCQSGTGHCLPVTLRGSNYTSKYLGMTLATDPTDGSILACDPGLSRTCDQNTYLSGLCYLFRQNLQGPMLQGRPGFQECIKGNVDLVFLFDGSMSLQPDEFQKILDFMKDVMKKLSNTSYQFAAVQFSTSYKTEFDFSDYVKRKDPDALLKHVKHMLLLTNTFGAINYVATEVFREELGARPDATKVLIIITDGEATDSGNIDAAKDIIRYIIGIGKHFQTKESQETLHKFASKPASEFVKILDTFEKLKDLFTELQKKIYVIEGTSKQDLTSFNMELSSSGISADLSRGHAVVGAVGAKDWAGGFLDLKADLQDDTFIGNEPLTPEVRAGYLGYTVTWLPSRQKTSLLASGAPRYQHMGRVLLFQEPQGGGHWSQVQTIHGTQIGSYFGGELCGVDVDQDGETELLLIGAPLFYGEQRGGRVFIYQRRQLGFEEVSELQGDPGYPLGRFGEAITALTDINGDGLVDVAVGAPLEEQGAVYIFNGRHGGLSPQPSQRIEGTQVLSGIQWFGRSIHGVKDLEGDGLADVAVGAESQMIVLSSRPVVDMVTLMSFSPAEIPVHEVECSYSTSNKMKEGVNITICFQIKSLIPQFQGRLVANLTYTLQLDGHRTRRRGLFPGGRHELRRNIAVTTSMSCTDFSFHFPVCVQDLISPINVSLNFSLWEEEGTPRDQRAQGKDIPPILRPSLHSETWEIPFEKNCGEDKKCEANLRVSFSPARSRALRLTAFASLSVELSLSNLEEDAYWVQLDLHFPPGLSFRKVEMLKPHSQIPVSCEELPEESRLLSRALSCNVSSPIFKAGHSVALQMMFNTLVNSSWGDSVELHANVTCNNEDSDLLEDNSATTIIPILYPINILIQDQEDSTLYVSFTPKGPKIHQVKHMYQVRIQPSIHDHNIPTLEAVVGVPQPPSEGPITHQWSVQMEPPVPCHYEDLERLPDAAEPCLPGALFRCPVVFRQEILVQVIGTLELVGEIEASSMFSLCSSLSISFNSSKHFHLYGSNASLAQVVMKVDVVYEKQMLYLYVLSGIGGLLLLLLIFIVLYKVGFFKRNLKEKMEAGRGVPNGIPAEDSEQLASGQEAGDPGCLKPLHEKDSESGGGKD

Sequence of ICAM-1 (P05362 28-532): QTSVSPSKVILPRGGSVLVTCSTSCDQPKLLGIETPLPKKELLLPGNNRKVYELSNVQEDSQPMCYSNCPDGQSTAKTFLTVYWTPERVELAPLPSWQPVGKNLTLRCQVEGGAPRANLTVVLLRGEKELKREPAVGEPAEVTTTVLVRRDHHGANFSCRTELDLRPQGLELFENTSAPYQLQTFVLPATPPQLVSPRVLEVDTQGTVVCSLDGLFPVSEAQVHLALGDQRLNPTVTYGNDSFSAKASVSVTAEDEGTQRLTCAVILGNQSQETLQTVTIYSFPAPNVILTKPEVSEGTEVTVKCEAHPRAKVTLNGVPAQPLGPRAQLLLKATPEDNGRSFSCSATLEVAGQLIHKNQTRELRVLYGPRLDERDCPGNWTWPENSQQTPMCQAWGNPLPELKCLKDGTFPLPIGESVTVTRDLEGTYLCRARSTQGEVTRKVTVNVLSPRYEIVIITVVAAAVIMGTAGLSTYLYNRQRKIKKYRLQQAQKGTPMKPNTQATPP

For “ICAM-1 (from UniProt P05362 28-532) (ligand)”, the cytotoxicity of NK92-CD16 cells against NSCLC cells (51chromium-release assay) with the ICAM1-CD11a interaction blocked was 10%.
